Experimental data: patent publication US20170130205A1, “METHOD FOR PREPARING INDUCED PLURIPOTENT STEM CELLS” (TAIPEI VETERANS GENERAL HOSPITAL, priority 2014, published 2017)

Assays:
Format in all cases: cell-based, human
[1] = test system: Ctrl-iPSC-CMs; assay: MED64 multi-electrode field potential recording of beating iPSC-derived cardiomyocytes (control); conditions: post-induction day 60, isoproterenol 0, 1, 10 μM
Description: (§1) The recording area of probes with 64 recording electrodes (MED probe; MED-P515A, Alpha Med Scientific, Osaka) for the MED64 System (Alpha Med Scientific) was coated with 2 ml of 0.1% gelatin that had been incubated at 37° C. for 1 hour. Beating iPSC-derived CMs were transferred onto the MED-probe dishes, and the electrical potentials were recorded with the MED64 multi-electrode array system. […] To evaluate the compounds, a cluster was treated with a compound in stepwise concentration increments. The medium was perfused at 1.7 ml/min at 37° C., and the field potentials were measured for 5 min.

[2] = test system: FD-iPSC-CMs; assay: MED64 multi-electrode field potential recording of beating iPSC-derived cardiomyocytes (Fabry); conditions: post-induction day 60
Description: as §1

[3] = test system: FD-iPSC-CMs; assay: ELISA of 12-HETE/15-HETE secretion into conditioned medium on Gb3 treatment, Fabry cells; conditions: FD-iPSC-CMs (Pt1 to Pt8); Gb3 15 μmole/L, 24 hours
[4] = test system: FD-iPSC-CMs; assay: Alox12/Alox15 protein expression on Gb3 treatment (Western blot, immunofluorescence), Fabry cells; conditions: FD-iPSC-CMs (Pt1 to Pt8), post-induction day 20; Gb3 15 μmole/L, 24 hours; vs ESC-CMs and Ctrl-iPSC-CMs
Description: (§2) The extraction of proteins from cells and western blot analysis were performed as described previously (Yang et al., Inhibition of cancer stem cell-like properties and reduced chemoradioresistance of glioblastoma using microrna145 with cationic polyurethane-short branch pei. Biomaterials. 2012; 33:1462-1476). Whole cell lysates were separated by electrophoresis on 12% SDS-PAGE and transferred to a polyvinylidene fluoride membrane. The membranes were blocked with 5% nonfat milk at room temperature for 1 hour. The blots were incubated with primary antibodies in TBST buffer containing 3% nonfat milk at 4° C. overnight and subsequently with secondary antibodies conjugated with peroxidase at 25° C. for 1 hour. The immunoblots were developed using an enhanced chemiluminescence system, and the luminescence was visualized on X-ray film.
(§3) The living cells and spheres were fixed in 4% paraformaldehyde, permeabilized in 0.1% Triton X-100, and blocked in 5% normal goat serum in PBS. […] The total amount of retained autofluorescent material was determined in the red (546) and green (488) channels by quantifying the pixel area (Adobe Photoshop/Image J software). The cellular area contents of the normal iPSC-CMs and the FD-iPSC-CMs were quantified using the ImageJ software package (National Institutes of Health, Bethesda, MD).

[5] = test system: Ctrl-iPSC-CMs or ESC-CMs; assay: ELISA of 12-HETE/15-HETE secretion into conditioned medium on Gb3 treatment, control cells; conditions: Gb3 15 μmole/L, 24 hours
[6] = test system: ESC-CMs, Ctrl-iPSC-CMs; assay: Alox12/Alox15 protein expression on Gb3 treatment (Western blot, immunofluorescence), control cells; conditions: post-induction day 20, Gb3 15 μmole/L, 24 hours
Description: as §2, §3

[7] = test system: FC-iPSC-CMs; assay: Immunofluorescence of Alox12/15 and fibrotic markers in FC-iPSC-CMs under ERT; conditions: read at day 60
Description: (§4) The living cells and spheres were fixed in 4% paraformaldehyde, permeabilized in 0.1% Triton X-100, and blocked in 5% normal goat serum in PBS. After being washed three times with PBS, the cells were incubated with goat anti-mouse secondary antibodies conjugated with FITC (green) or PE (red). DAPI (blue) was used as the nuclear stain. Labeled cells were imaged with a laser-scanning confocal microscope (Olympus). The total amount of retained autofluorescent material was determined in the red (546) and green (488) channels by quantifying the pixel area (Adobe Photoshop/Image J software). The cellular area contents of the normal iPSC-CMs and the FD-iPSC-CMs were quantified using the ImageJ software package (National Institutes of Health, Bethesda, MD).
(§5) However, the interrelationship between treatment onset and the efficacy of ERT drugs in FC with fibrotic progression remains unclear. Therefore, we compared the treatment efficacy of GLA between early (5 μg/ml of GLA from day 20 to day 60 post-differentiation; FIG. 13C) and late (5 μg/ml of GLA from day 40 to day 60 post-differentiation; FIG. 13D) administrations in FC-iPSC-CMs, and evaluated the levels of cardiac Alox12/15 and fibrotic markers at day 60 post-differentiation. […] We therefore tested the treatment efficacy of the pharmacological inhibition of cardiac Alox12/15 in combination with ERT (FIG. 15).

[8] = test system: FC-iPSC-CMs; assay: Secreted levels of LysoGb3, 12(S)-HETE and 15(S)-HETE from FC-iPSC-CMs
Description: For liquid chromatography for lysoGb3 and Gb3 analysis, we used Waters Alliance 2795XE HPLC system to perform stepwise gradient elution. The flow rate was 0.3 mL/min in lysoGb3 or Gb3 experiment. Mass spectrometry of lysoGb3 and Gb3 detection was performed in positive ion mode (ES+) on a triple quadruplemass spectrometer (Quattro Ultima, Waters, Milford, Mass.) with NeoLynx software version 4.1. The analyzing methods were modified from the protocol provided by Shire Human Genetic Therapies. LC-MS/MS analysis was performed using an LTQ Orbitrap (Thermo Fisher Scientific) as described previously.
Whole blood samples were collected into 1.8 mg/ml EDTA-K3 tubes and centrifuged at 2500×g for 20 min at room temperature to obtain the plasma samples. The aliquots were stored at −80° C. until use. Enzyme-linked immunoassays (ELISAs) were used for 15(S) HETE (Cayman Chemicals) and 12(S) HETE (Detroit R&D) quantification according to the manufacturers' instructions (Detroit R&D).
as §5

[9] = test system: FC-iPSC-CMs; assay: Cell size of FC-iPSC-CMs by quantification of cTnT-positive margins; conditions: early-administration: 5 μg/ml GLA day 20 to day 60
Description: as §4, §5

[10] = test system: ESC-CMs, Ctrl-iPSC-CMs, FC-iPSC-CMs; assay: GLA enzyme activity in cardiomyocytes with administration of GLA; conditions: day 20 post-induction; GLA 5 μg/ml for 5 days; all experimental cells
Description: Cells were washed twice with PBS, incubated in 200 μl of fresh medium at 37° C. and 5% CO2 for 2 hours, and washed twice with PBS. Afterward, the cells were lysed in 60 μl of Lysis Buffer (27 mM of sodium citrate, 46 mM of sodium phosphate dibasic, 0.5% Triton X-100, pH 4.6). Lysates (10 μl) were added to 50 μl of Assay Buffer (Lysis Buffer without Triton X-100) containing 6 mM of 4-MUG and 117 mM of N-acetyl-D-galactosamine (GalNac, an inhibitor of -N-acetylgalactosaminidase, which is a lysosomal enzyme present in cell lysates that hydrolyzes 4-MUG) and incubated at 37° C. for 1 hour. The Stop Solution (0.4 M glycine, pH 10.8; 70 μl) was added, and the fluorescence was read on a Victor plate reader (Perkin-Elmer, Waltham, Mass.) at 355 nm excitation and 460 nm emission. A Micro BCA Protein Assay Kit (Pierce, Rockford, Ill.) was used according to the manufacturer's instructions to determine the protein concentration from 40 μl of cell lysate from each well. The total protein amount in each well was used to normalize the enzyme activity. A 4-methylumbelliferone (4-MU) standard curve ranging from 1.3 nM to 30 μM was run in parallel to calculate the absolute -Gal A activity, expressed as nmol of 4-MU released/mg protein/hour (nmol/mg protein/hour), which was normalized to the percentage of the untreated wild-type (% WT) enzyme activity. […]

[11] = early-administration of GLA, day 60, vs untreated cells
[12] = late-administration of GLA, day 60

**Q.** Which “effect on beating frequency of contractile colonies” value [1] does the source give for CC(C)NCC(O)c1ccc(O)c(O)c1 (stereo not shown) [Isoproterenol, isoproterenol] here?
**A.** The value was “dose-dependent chronotropic effect”.

**Q.** And the “electrophysiological response (beating frequency) to the drug” value [2]?
**A.** Its value is “random occurrences of arrhythmias”.

**Q.** For globotriaosylceramide [Gb3], which “secretion of 12-HETE and 15-HETE” value [3] is on record?
**A.** The value was “largely stimulated”.

**Q.** What about the Alox12/Alox15 protein expression [4] of the same molecule?
**A.** Its Alox12/Alox15 protein expression is “upregulation of Alox12/Alox15 at higher magnitudes”.

**Q.** And the “secretion of 12-HETE/15-HETE” value [5]?
**A.** Its value is “mildly increase”.

**Q.** And the “Alox12 and Alox15 protein expression” value [6]?
**A.** The value was “increased”.

B1: α-galactosidase A (protein, UniProt P06280 32-429, looked up)
Alpha-galactosidase A: LDNGLARTPTMGWLHWERFMCNLDCQEEPDSCISEKLFMEMAELMVSEGWKDAGYEYLCIDDCWMAPQRDSEGRLQADPQRFPHGIRQLANYVHSKGLKLGIYADVGNKTCAGFPGSFGYYDIDAQTFADWGVDLLKFDGCYCDSLENLADGYKHMSLALNRTGRSIVYSCEWPLYMWPFQKPNYTEIRQYCNHWRNFADIDDSWKSIKSILDWTSFNQERIVDVAGPGGWNDPDMLVIGNFGLSWNQQVTQMALWAIMAAPLFMSNDLRHISPQAKALLQDKDVIAINQDPLGKQGYQLRQGDNFEVWERPLSGLAWAVAMINRQEIGGPRSYTIAVASLGKGVACNPACFITQLLPVKRKLGFYEWTSRLRSHINPTGTVLLQLENTMQMSLKDLL
notes: enzyme used as enzyme replacement therapy (ERT) in the FC-iPSC-CM platform
**Q.** For B1, which “expression levels of Alox12/15 and fibrotic biomarkers MMP1, TGF-β and collagen1” value ([7]; early-administration: 5 μg/ml GLA day 20 to day 60) is on record?
**A.** Its value is “suppressed”.

**Q.** And the fibrotic protein expression ([7]; late-administration: 5 μg/ml GLA day 40 to day 60)?
**A.** The fibrotic protein expression was “negligible inhibitory effect”.

**Q.** And the “secreted level of 12-HETE” value [8, 11]?
**A.** The value was “significantly suppressed”.

**Q.** And the “secreted level of 15-HETE” value [8, 11]?
**A.** Its value is “significantly suppressed”.

**Q.** What about the “secreted level of lysoGb3” value [8, 11] of the same molecule?
**A.** The value was “significantly suppressed”.

**Q.** And the “secreted level of lysoGb3” value [8, 12]?
**A.** Its value is “significant reduction”.

**Q.** And the “secretion of 12(S)-HETE” value [8, 12]?
**A.** Its value is “negligible inhibitory effect”.

**Q.** And the “secretion of 15(S)-HETE” value [8, 12]?
**A.** Its value is “negligible inhibitory effect”.

**Q.** What about the “cell size of FC-iPSC-CMs” value [9] of the same molecule?
**A.** The value was “prominently reduced”.

**Q.** And the “GLA activity in cells” value [10]?
**A.** The value was “elicited high GLA activity”.
